Assay results as given in patent publication US20130224191A1, “NOTUM PROTEIN MODULATORS AND METHODS OF USE” (priority 2010, published 2013).

Experiments:
[1] = 4-MUH fluorescent hydrolase assay, activity of Notum constructs; format: biochemical
Description: In addition to the assays described in Examples 23 and 24, a fluorescent esterase substrate, 4-methylumbelliferyl heptanoate (Sigma), can be used to measure the activity of hydrolases using standard assay conditions (Richardson and Smith, 2007, PMID: 17620441; Jacks and Kircher, 1967, PMID: 5582971). Briefly, 4-MUH was dissolved in DMSO to a final concentration of 1.2 mM. This substrate was diluted 1:10 into assay buffer (0.1M Tris, pH 7.5, 50 mM NaCl, 0.05% Brij) and incubated with defined amounts of Notum enzyme or point-mutated Notum enzymes, and enzymatic release of the fluorescent molecule 4-methylumbelliferone monitored (355 nm excitation, 460 nm emission) using a Wallac Victor3 Multilabel Counter (Perkin Elmer).

[2] = test system: Wnt3A-mediated induction of luciferase in the 293.TCF cells; test: Wnt3A canonical signaling assay, bioactivity of Notum constructs; format: cell-based, human
Source text: To generate a stable population of cells that contain a reporter for the activation of canonical Wnt signaling, HEK 293T cells were transduced with a lentiviral vector, pGreenFirel-TCF (System Biosciences) which encodes a bifunctional GFP and luciferase reporter cassette under the control of a minimal CMV reporter linked to four tandem repeats of the transcriptional response elements for TCF. Transduced cells populations, termed 293.TCF cells, were subsequently used in a Wnt3A canonical signaling assay as follows: 2.5×10^4 293.TCF cells were plated per well of a 96-well tissue culture plate in 50 μL of serum-free DME medium. After 24 hours of serum starvation, 25 μL of various dilutions of conditioned medium (CM) from L/Wnt3A cells (ATCC CRL-2647; Willert, 2003) or undiluted CM from parental L-cells (ATCC CRL-2648) along with 25 μL of DMEM+0.2% FBS were added to each well. Eighteen hours after addition of CM, 100 μL of One-Glo solution (ProMega Corp.) was added to each well. The contents of each well were then mixed thoroughly to lyse the cells, 100 μL of lysate transferred to black 96-well plates, and the luminescence in each well read after 5 mins using a Wallac Victor3 Multilabel Counter (Perkin-Elmer Corp). […] More particularly, as the Wnt3A+ CM media is diluted from 25% down to approximately 3%, activation of the Wnt pathway is reduced with a corresponding decrease in luminescence.
Once the luciferase reporter system was established, assays for determining the bioactivity of various Notum modulators were performed as follows. 2.5×10^4 293.TCF cells were plated per well of a 96-well tissue culture plate in 50 μL of serum-free medium. After 23 hours of serum starvation, 25 μL of DMEM+0.2% FBS containing various Notum modulators at various concentrations (e.g., hNotum-His, hNotum-hFc, hNotum-S232A-His, murine Notum-His, murine Notum-hFc, macaque Notum-hFc, control protein-His or control protein-hFc obtained as per Examples 7, 8 and 13 above), were added to the cells. After 1 hour, 25 μL of Wnt3A or control L-cell CM were added to each well. Eighteen hours after addition of CM, 100 μL of One-Glo solution (ProMega Corp.) was added to each well, the contents of each well mixed thoroughly to lyse the cells, 100 μL of lysate transferred to black 96-well plates, and the luminescence read after 5 minutes.

[3] = Esterase activity of Notum proteins on chromogenic substrates; format: biochemical; conditions: 1 hour at 37° C.
Description: Briefly, PNPA or PNPB were dissolved/diluted in isopropanol to final concentrations of 10 mM. These substrate solutions were diluted 1:10 into assay buffer (0.1% gum arabic, 2.3 mg/mL sodium dexoycholate, 1×PBS) and incubated with defined amounts of hNotum enzyme, and the enzymatic release of the chromophore p-nitrophenol monitored by absorbance measurements at 405 nm.

| hydrolysis of the 4-MUH substrate [1] | Molecule | antagonism of Wnt3A-mediated induction of luciferase [2] | esterase activity [3] |
| --- | --- | --- | --- |
| retained bioactivity | D141S: human Notum point mutated at D141 to the murine residue (protein) SEGRKTWRRRGQQPPPPPRTEAAPAAGQPVESFPLDFTAVEGNMDSFMAQVKSLAQSLYPCSAQQLNEDLRLHLLLNTSVTCNDGSPAGYYLKESRGSRRWLLFLEGGWYCFNRENCDSRYSTMRRLMSSRDWPRTRTGTGILSSQPEENPYWWNANMVFIPYCSSDVWSGASSKSEKNEYAFMGALIIQEVVRELLGRGLSGAKVLLLAGSSAGGTGVLLNVDRVAEQLEKLGYPAIQVRGLADSGWFLDNKQYRHTDCVDTITCAPTEAIRRGIRYWNGVVPERCRRQFQEGEEWNCFFGYKVYPTLRCPVFVVQWLFDEAQLTVDNVHLTGQPVQEGLRLYIQNLGRELRHTLKDVPASFAPACLSHEIIIRSHWTDVQVKGTSLPRALHCWDRSLHDSHKASKTPLKGCPVHLVDSCPWPHCNPSCPTVRDQFTGQEMNVAQFLMHMGFDMQTVAQPQGLEPSELLGMLSNGS | retained bioactivity |  |
| retained bioactivity | D141N: human Notum point mutated at D141 to the macaque residue (protein) SEGRKTWRRRGQQPPPPPRTEAAPAAGQPVESFPLDFTAVEGNMDSFMAQVKSLAQSLYPCSAQQLNEDLRLHLLLNTSVTCNDGSPAGYYLKESRGSRRWLLFLEGGWYCFNRENCDSRYNTMRRLMSSRDWPRTRTGTGILSSQPEENPYWWNANMVFIPYCSSDVWSGASSKSEKNEYAFMGALIIQEVVRELLGRGLSGAKVLLLAGSSAGGTGVLLNVDRVAEQLEKLGYPAIQVRGLADSGWFLDNKQYRHTDCVDTITCAPTEAIRRGIRYWNGVVPERCRRQFQEGEEWNCFFGYKVYPTLRCPVFVVQWLFDEAQLTVDNVHLTGQPVQEGLRLYIQNLGRELRHTLKDVPASFAPACLSHEIIIRSHWTDVQVKGTSLPRALHCWDRSLHDSHKASKTPLKGCPVHLVDSCPWPHCNPSCPTVRDQFTGQEMNVAQFLMHMGFDMQTVAQPQGLEPSELLGMLSNGS | retained bioactivity |  |
|  | macaque Notum-hFc: fusion construct of macaque Notum and human Fc region (protein, left off: a dimerising Fc or GST, fusion construct of macaque Notum and human Fc region) SEGRKTWRRRGQQPPPPPRTEAAPAAGQPVESFPLDFTAVEGNMDSFMAQVKSLAQSLYPCSAQQLNEDLRLHLLLNTSVTCNDGSPAGYYLKESRGSRRWLLFLEGGWYCFNRENCDSRYNTMRRLMSSRDWPRTRTGTGILSSQPEENPYWWNANMVFIPYCSSDVWSGASSKSEKNEYAFMGALIIQEVVRELLGRGLSGAKVLLLAGSSAGGTGVLLNVDRVAEQLEELGYPAIQVRGLADSGWFLDNKQYRHTDCVDTITCAPTEAIRRGIRYWNGVVPERCRRQFQEGEEWNCFFGYKIYPTLRCPVFVVQWLFDEAQLTVDNVHLTGQPVQESQRLYIQNLGRELRHTLKDVPASFAPACLSHEIIIRSHWTDVQVKGTSLPRALHCWDRSLHDSHKNSKTPLKGCPVHLVDSCPWPHCNPSCPTVRDQFTGQEMNVAQFLMHMGFDVQTVAQQQGPEPSKLLGL | functionally antagonize |  |
|  | murine Notum-His: His tagged murine Notum (protein, left off: small tags and cut ends) SEGRKTWRRRGQQPPQPPPPPPLPQRAEVEPGAGQPVESFPLDFTAVEGNMDSFMAQVKSLAQSLYPCSAQQLNEDLRLHLLLNTSVTCNDGSPAGYYLKESKGSRRWLLFLEGGWYCFNRENCDSRYSTMRRLMSSKDWPHTRTGTGILSSQPEENPHWWNANMVFIPYCSSDVWSGASPKSDKNEYAFMGSLIIQEVVRELLGKGLSGAKVLLLAGSSAGGTGVLLNVDRVAELLEELGYPSIQVRGLADSGWFLDNKQYRRSDCIDTINCAPTDAIRRGIRYWSGMVPERCQRQFKEGEEWNCFFGYKVYPTLRCPVFVVQWLFDEAQLTVDNVHLTGQPVQEGQWLYIQNLGRELRGTLKDVQASFAPACLSHEIIIRSYWTDVQVKGTSLPRALHCWDRSFHDSHKASKTPMKGCPFHLVDSCPWPHCNPSCPTIRDQFTGQEMNVAQFLMHMGFDVQTVAQQQGMEPSKLLGMLSNGN | functionally antagonize |  |
|  | murine Notum: recombinant murine Notum protein, construct not stated (protein) SEGRKTWRRRGQQPPQPPPPPPLPQRAEVEPGAGQPVESFPLDFTAVEGNMDSFMAQVKSLAQSLYPCSAQQLNEDLRLHLLLNTSVTCNDGSPAGYYLKESKGSRRWLLFLEGGWYCFNRENCDSRYSTMRRLMSSKDWPHTRTGTGILSSQPEENPHWWNANMVFIPYCSSDVWSGASPKSDKNEYAFMGSLIIQEVVRELLGKGLSGAKVLLLAGSSAGGTGVLLNVDRVAELLEELGYPSIQVRGLADSGWFLDNKQYRRSDCIDTINCAPTDAIRRGIRYWSGMVPERCQRQFKEGEEWNCFFGYKVYPTLRCPVFVVQWLFDEAQLTVDNVHLTGQPVQEGQWLYIQNLGRELRGTLKDVQASFAPACLSHEIIIRSYWTDVQVKGTSLPRALHCWDRSFHDSHKASKTPMKGCPFHLVDSCPWPHCNPSCPTIRDQFTGQEMNVAQFLMHMGFDVQTVAQQQGMEPSKLLGMLSNGN |  | display esterase activity |
|  | murine Notum-hFc: fusion construct of mouse Notum and human Fc region (protein, left off: a dimerising Fc or GST, fusion construct of mouse Notum and human Fc region) SEGRKTWRRRGQQPPQPPPPPPLPQRAEVEPGAGQPVESFPLDFTAVEGNMDSFMAQVKSLAQSLYPCSAQQLNEDLRLHLLLNTSVTCNDGSPAGYYLKESKGSRRWLLFLEGGWYCFNRENCDSRYSTMRRLMSSKDWPHTRTGTGILSSQPEENPHWWNANMVFIPYCSSDVWSGASPKSDKNEYAFMGSLIIQEVVRELLGKGLSGAKVLLLAGSSAGGTGVLLNVDRVAELLEELGYPSIQVRGLADSGWFLDNKQYRRSDCIDTINCAPTDAIRRGIRYWSGMVPERCQRQFKEGEEWNCFFGYKVYPTLRCPVFVVQWLFDEAQLTVDNVHLTGQPVQEGQWLYIQNLGRELRGTLKDVQASFAPACLSHEIIIRSYWTDVQVKGTSLPRALHCWDRSFHDSHKASKTPMKGCPFHLVDSCPWPHCNPSCPTIRDQFTGQEMNVAQFLMHMGFDVQTVAQQQGMEPSKLLGMLSNGN | functionally antagonize |  |

| Molecule | hydrolysis of the 4-MUH substrate [1] | antagonism of Wnt3A-mediated induction of luciferase [2] | esterase activity [3] |
| --- | --- | --- | --- |
| D340A: human Notum with D340A point mutation of the catalytic acidic residue (protein, UniProt Q6P988 20-496, looked up, variant D340A) Palmitoleoyl-protein …: SEGRKTWRRRGQQPPPPPRTEAAPAAGQPVESFPLDFTAVEGNMDSFMAQVKSLAQSLYPCSAQQLNEDLRLHLLLNTSVTCNDGSPAGYYLKESRGSRRWLLFLEGGWYCFNRENCDSRYDTMRRLMSSRDWPRTRTGTGILSSQPEENPYWWNANMVFIPYCSSDVWSGASSKSEKNEYAFMGALIIQEVVRELLGRGLSGAKVLLLAGSSAGGTGVLLNVDRVAEQLEKLGYPAIQVRGLADSGWFLDNKQYRHTDCVDTITCAPTEAIRRGIRYWNGVVPERCRRQFQEGEEWNCFFGYKVYPTLRCPVFVVQWLFAEAQLTVDNVHLTGQPVQEGLRLYIQNLGRELRHTLKDVPASFAPACLSHEIIIRSHWTDVQVKGTSLPRALHCWDRSLHDSHKASKTPLKGCPVHLVDSCPWPHCNPSCPTVRDQFTGQEMNVAQFLMHMGFDMQTVAQPQGLEPSELLGMLSNGS | no ability to hydrolyze the 4-MUH substrate | no ability to antagonize |  |
